B1: Pistol ribozyme (parent)
chain: GGGUCGUUGUUCCAUAAUCGCGUGGAUAUGGCACGCAAGUUUCUACCGGGCACCGUAAAUGUCCGACUGGAGCCGUUCGGGCGGCUAUAAACAGACCUCAGGCCCGAAGCGUGGCGGCACCUGCCGCCGGUGGUAAAAAAGAUCGGAAGAGCACACGUCU

Variants of B1 are the subject of the data set. Nature of the data set: aptazyme ON/OFF ratio, guanine; higher = stronger switching; co-transcriptional cleavage with and without guanine.
Consider G9A U10C U11G C12A C13G, for which the “aptazyme ON/OFF ratio” value amounted to 1.3.
In the case of G9A U10C U11G C12A C13A, the “aptazyme ON/OFF ratio” value is 1.22.
The value for G9A U10C U11G C12A C13U was 1.21; that for G9C U10A C12U was 1.6.
The value for G9C U10A C12G was 1.22; that for G9C U10A C12A was 1.81.
For G9A U11G C12U, the “aptazyme ON/OFF ratio” value turned out to be 2.06.
In the case of G9A U11G C12G, the “aptazyme ON/OFF ratio” value stood at 1.3.
As to G9A U11G C12A, the “aptazyme ON/OFF ratio” value stood at 1.1.
The same measure for G9A U10A U11G C12U C13A: 1.34; for G9A U10A U11G C12U C13U: 1.22; for G9A U10A U11G C12U C13G: 1.28.
With G9C U10A U11A C13U, the “aptazyme ON/OFF ratio” value came out at 1.32.
The value for G9C U10A U11A C13A was 1.22; that for G9C U10A U11A C13G was 1.05; that for G9C U10A U11A C12U C13A was 1.34.
The value for G9C U10A U11A C12U C13U was 1.42; that for G9C U10A U11A C12U C13G was 1.14.
The same measure for G9C U10A U11G C12U C13G: 1.16.
Turning to G9C U10A U11G C12U C13A, the “aptazyme ON/OFF ratio” value is 1.08.
As for G9C U10A U11G C12U C13U, the “aptazyme ON/OFF ratio” value was found to be 1.26.
For the variant G9C U10C U11A C12G C13A, the “aptazyme ON/OFF ratio” value was determined as 1.19.
Consider G9C U10C U11A C12G C13G, for which the “aptazyme ON/OFF ratio” value stood at 1.19.
As to G9C U10C U11A C12G C13U, the “aptazyme ON/OFF ratio” value amounted to 1.22.
The same measure for G9A U10G U11A C12G C13A: 1.02.
Take G9A U10G U11A C12G C13G: the “aptazyme ON/OFF ratio” value amounted to 1.45.
Turning to G9A U10G U11A C12G C13U, the “aptazyme ON/OFF ratio” value was found to be 1.53.
The same measure for G9A U10G U11C C13A: 1.16; for G9A U10G U11C C13G: 1.12; for G9A U10G U11C C13U: 1.09.
The value for G9A U11C C12G was 1.45.
For the variant G9A U11C C12U, the “aptazyme ON/OFF ratio” value was 1.35.
As to G9A U11C C12A, the “aptazyme ON/OFF ratio” value was found to be 1.38.
The value for G9C U10C U11A C12A C13U was 1.11.
The value for G9C U10C U11A C12A C13G was 1.07.
The same measure for G9C U10C U11A C12A C13A: 1.06.
Take G9A U10G U11G C12G C13U: the “aptazyme ON/OFF ratio” value was found to be 1.15.
In the case of G9A U10G U11G C12G C13G, the “aptazyme ON/OFF ratio” value was found to be 1.22.
The same measure for G9A U10G U11G C12G C13A: 1.16; for G9C C12U C13A: 1.14.
The same measure for G9C C12U C13U: 1.31; for G9C C12U C13G: 1.04; for G9A U10C U11G C12G C13A: 1.17.
The value for G9A U10C U11G C12G C13G was 1.12; that for G9A U10C U11G C12G C13U was 1.1.
G9C U10A U11G C12G C13A: the “aptazyme ON/OFF ratio” value is 1.19.
With G9C U10A U11G C12G C13U, the “aptazyme ON/OFF ratio” value was 1.16.
The same measure for G9C U10A U11G C12G C13G: 1.13.
For G9C U10C C13A, the “aptazyme ON/OFF ratio” value is 1.06.
For G9C U10C C13U, the “aptazyme ON/OFF ratio” value was 1.1.
The same measure for G9C U10C C13G: 1.06; for G9A U10G C13A: 1.3; for G9A U10G C13U: 1.52.
As to G9A U10G C13G, the “aptazyme ON/OFF ratio” value was determined as 1.15.
In the case of G9C U10C U11G C12A C13A, the “aptazyme ON/OFF ratio” value worked out at 1.04.
The value for G9C U10C U11G C12A C13G was 1.03.
As for G9C U10C U11G C12A C13U, the “aptazyme ON/OFF ratio” value is 1.02.
The value for G9A U11G C12U C13G was 1.42.
On to G9A U11G C12U C13A, for which the “aptazyme ON/OFF ratio” value was found to be 1.35.
The value for G9A U11G C12U C13U was 1.21.
Turning to G9A U10C C12G C13G, the “aptazyme ON/OFF ratio” value turned out to be 1.23.
The same measure for G9A U10C C12G C13A: 1.23; for G9A U10C C12G C13U: 1.31; for G9A U10A U11G C12G C13G: 1.2.
The value for G9A U10A U11G C12G C13A was 1.42; that for G9A U10A U11G C12G C13U was 1.25.
Take G9C U10C U11G: the “aptazyme ON/OFF ratio” value amounted to 1.41.
With G9C U10C U11C, the “aptazyme ON/OFF ratio” value was found to be 0.976.
G9C U10C U11A: the “aptazyme ON/OFF ratio” value came out at 1.12.
Consider G9A U10G U11C C12A, for which the “aptazyme ON/OFF ratio” value came out at 1.53.
As to G9A U10G U11C C12G, the “aptazyme ON/OFF ratio” value was determined as 1.33.
The same measure for G9A U10G U11C C12U: 1.08.
In the case of G9C U10A U11C C12A C13U, the “aptazyme ON/OFF ratio” value is 1.29.
The same measure for G9C U10A U11C C12A C13A: 1.3; for G9C U10A U11C C12A C13G: 1.18.
The value for G9A U11G C12G C13G was 1.3; that for G9A U11G C12G C13A was 1.18; that for G9A U11G C12G C13U was 1.15.
Take G9A U10C U11A C12G C13A: the “aptazyme ON/OFF ratio” value was determined as 1.14.
Take G9A U10C U11A C12G C13G: the “aptazyme ON/OFF ratio” value was determined as 1.31.
The value for G9A U10C U11A C12G C13U was 1.36; that for G9A U11A C12U was 1.83; that for G9A U11A C12A was 1.68.
